Article PMC10658506, “An engineered interleukin‐11 decoy cytokine inhibits receptor signaling and proliferation in lung adenocarcinoma” (Bioengineering & Translational Medicine, 2023)

How the values were obtained:
[1] = target: T1, soluble mouse IL-11 receptor (mouse, UniProt Q64385 24-372); test: flow cytometry on cells; yeast-displayed IL-11 variants incubated with varying concentrations of soluble IL-11R or mIL-11R overnight at room temperature, washed with BPBS; receptor detected with anti-his AF647, display with anti-c-myc; apparent Kd from the fraction bound of the expressing population; conditions: one partner purified
T1 construct: interleukin-11 receptor, mouse (mIL-11R), soluble; also called mIL-11R; source: bought: Sino Biological, 50,075-M08H-100
T1 sequence (looked up): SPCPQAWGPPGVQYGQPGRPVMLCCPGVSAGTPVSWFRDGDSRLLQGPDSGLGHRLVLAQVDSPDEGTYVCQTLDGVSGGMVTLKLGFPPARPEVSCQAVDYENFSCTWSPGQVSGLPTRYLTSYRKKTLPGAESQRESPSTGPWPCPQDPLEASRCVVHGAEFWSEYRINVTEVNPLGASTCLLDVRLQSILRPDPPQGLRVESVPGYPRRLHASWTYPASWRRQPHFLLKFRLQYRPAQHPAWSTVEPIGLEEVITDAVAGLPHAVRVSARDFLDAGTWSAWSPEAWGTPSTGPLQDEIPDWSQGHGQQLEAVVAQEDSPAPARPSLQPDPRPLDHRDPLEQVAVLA

[2] = target: T2, mIL-11R-mFc (mouse, UniProt Q64385 24-372); test: BLI; mIL-11R-mFc loaded on antimouse Fc biosensors at 1.25 ug/mL in kinetics buffer; three-fold serial dilutions of WT IL-11 or enIL-11; apparent Kd; binding to enIL-11 performed by Antibody Solutions; conditions: both partners purified
T2 construct: interleukin-11 receptor, mouse (mIL-11R), mouse Fc fusion; also called mouse IL-11R; source: bought: R&D Systems, 7405-MR
T2 sequence (looked up): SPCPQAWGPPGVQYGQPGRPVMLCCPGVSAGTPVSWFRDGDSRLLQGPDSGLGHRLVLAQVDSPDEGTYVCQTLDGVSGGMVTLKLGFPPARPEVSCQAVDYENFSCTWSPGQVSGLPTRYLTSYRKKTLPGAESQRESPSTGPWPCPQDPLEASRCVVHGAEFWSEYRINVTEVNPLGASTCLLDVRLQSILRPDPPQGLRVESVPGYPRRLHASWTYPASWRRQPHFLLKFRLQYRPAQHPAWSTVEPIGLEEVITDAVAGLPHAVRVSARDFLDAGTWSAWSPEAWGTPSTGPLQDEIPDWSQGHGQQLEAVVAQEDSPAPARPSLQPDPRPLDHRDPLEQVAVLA

[3] = target: T3, biotinylated IL-11R-Fc (human, UniProt Q14626 24-370, biotin); test: BLI; biotinylated IL-11R-Fc loaded on streptavidin biosensors at 1.25 ug/mL in kinetics buffer; three-fold serial dilutions of WT IL-11 or enIL-11; apparent Kd; binding to enIL-11 performed by Antibody Solutions; conditions: both partners purified
T3 construct: interleukin-11 receptor (IL-11R), human, Fc fusion; source: bought: Acro, ILR-H82F5
T3 sequence (looked up): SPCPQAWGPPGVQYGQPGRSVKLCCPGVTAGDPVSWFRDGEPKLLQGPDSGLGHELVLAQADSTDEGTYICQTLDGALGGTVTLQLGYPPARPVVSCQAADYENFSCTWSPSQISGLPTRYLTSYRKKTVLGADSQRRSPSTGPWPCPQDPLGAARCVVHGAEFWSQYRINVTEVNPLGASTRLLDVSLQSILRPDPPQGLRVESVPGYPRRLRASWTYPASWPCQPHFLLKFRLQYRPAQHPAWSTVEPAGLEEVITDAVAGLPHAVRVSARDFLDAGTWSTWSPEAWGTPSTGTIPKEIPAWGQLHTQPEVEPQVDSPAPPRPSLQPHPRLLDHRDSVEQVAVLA

B1: yeast-displayed mouse IL-11 wild-type (ligand, UniProt P47873 22-199, looked up)
chain: PGPPAGSPRVSSDPRADLDSAVLLTRSLLADTRQLAAQMRDKFPADGDHSLDSLPTLAMSAGTLGSLQLPGVLTRLRVDLMSYLRHVQWLRRAGGPSLKTLEPELGALQARLERLLRRLQLLMSRLALPQAAPDQPVIPLGPPASAWGSIRAAHAILGGLHLTLDWAVRGLLLLKTRL
notes: interleukin-11, mouse; also called mIL-11; mIL-11 WT; not shown: c-myc, C-terminal, kept
In the case of B1, the Kd [1] is reported as 3.1 ± 0.8 nM.

B2: yeast-displayed wild-type human IL-11 (ligand, UniProt P20809 22-199, looked up)
chain: PGPPPGPPRVSPDPRAELDSTVLLTRSLLADTRQLAAQLRDKFPADGDHNLDSLPTLAMSAGALGALQLPGVLTRLRADLLSYLRHVQWLRRAGGSSLKTLEPELGTLQARLDRLLRRLQLLMSRLALPQPPPDPPAPPLAPPSSAWGGIRAAHAILGGLHLTLDWAVRGLLLLKTRL
notes: interleukin-11 (IL-11), human, residues Pro22 to Leu199 of the precursor; also called IL-11 WT; WT IL-11; not shown: c-myc, C-terminal, kept
B2 was tested, and the Kd [1] was 2.2 ± 0.3 nM.

B3: soluble recombinant wild-type human IL-11 (ligand)
chain: SPDPRAELDSTVLLTRSLLADTRQLAAQLRDKFPADGDHNLDSLPTLAMSAGALGALQLPGVLTRLRADLLSYLRHVQWLRRAGGSSLKTLEPELGTLQARLDRLLRRLQLLMSRLALPQPPPDPPAPPLAPPSSAWGGIRAAHAILGGLHLTLDWAVRGLLLLKTRL
notes: interleukin-11 (IL-11), human; also called WT IL-11; IL-11 WT; source: E. coli BL21, purified (cobalt beads), cleaved with TEV protease; not shown: His6, N-terminal, cleaved; thioredoxin, N-terminal, cleaved
B3 gave a Kd [2] of 11 ± 0.3 nM and a Kd [3] of 9.5 ± 0.3 nM.

B4: enIL-11 (engineered human IL-11, GIPR RA S60T), soluble (designed binder)
chain: SPDPRAELGSIVLRTRSLLADTRQLAAQLRDKFPADGDHNLDSLPTPAMTARALGALQLPGVLTRLRADLLSYLRHVQWLRRAGGSSLKTLEPELGTLQARLDRLLRRLQLLMSRLALPQPPPDPPAPPLAPPSSAAGGIRAAHAILGGLHLTLDWAVRGLLLLKTRL
notes: interleukin-11 (IL-11), human; source: E. coli BL21, purified (cobalt beads), cleaved with TEV protease; not shown: His6, N-terminal, cleaved; thioredoxin, N-terminal, cleaved
For B4, the Kd [2] was 0.16 ± 0.01 nM and the Kd [3] was 0.41 ± 0.01 nM.
